Experimental findings from patent publication EP4755449A2 (CHUGAI SEIYAKU KABUSHIKI KAISHA, dated 2026) are described below.

Experiment [1] concerns the target T1, human Fc gamma RIIb extracellular domain, His-tagged (human, UniProt P31994 43-217).
T1 construct: also called FcgRIIb
T1 sequence: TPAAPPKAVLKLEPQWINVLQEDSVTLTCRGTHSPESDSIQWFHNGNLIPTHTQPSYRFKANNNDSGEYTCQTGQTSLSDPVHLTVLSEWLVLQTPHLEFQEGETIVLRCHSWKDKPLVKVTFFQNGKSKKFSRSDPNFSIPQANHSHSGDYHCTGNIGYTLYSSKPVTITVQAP
Briefly: SPR 25C.

Experiment [2] deals with T2, cyno Fc gamma RIIb extracellular domain, His-tagged (cynomolgus monkey).
T2 construct: also called cynoFcgRIIb
T2 chain: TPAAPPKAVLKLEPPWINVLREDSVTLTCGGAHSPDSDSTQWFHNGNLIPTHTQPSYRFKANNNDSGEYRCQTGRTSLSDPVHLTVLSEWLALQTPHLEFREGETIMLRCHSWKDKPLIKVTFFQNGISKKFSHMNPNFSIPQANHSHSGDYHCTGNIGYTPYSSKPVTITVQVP
The experiment in a line: SPR 25C.

B1: M103205H795-SG1 K334Y/M103202L889-SK1 (antibody, human IgG1, kappa)
heavy: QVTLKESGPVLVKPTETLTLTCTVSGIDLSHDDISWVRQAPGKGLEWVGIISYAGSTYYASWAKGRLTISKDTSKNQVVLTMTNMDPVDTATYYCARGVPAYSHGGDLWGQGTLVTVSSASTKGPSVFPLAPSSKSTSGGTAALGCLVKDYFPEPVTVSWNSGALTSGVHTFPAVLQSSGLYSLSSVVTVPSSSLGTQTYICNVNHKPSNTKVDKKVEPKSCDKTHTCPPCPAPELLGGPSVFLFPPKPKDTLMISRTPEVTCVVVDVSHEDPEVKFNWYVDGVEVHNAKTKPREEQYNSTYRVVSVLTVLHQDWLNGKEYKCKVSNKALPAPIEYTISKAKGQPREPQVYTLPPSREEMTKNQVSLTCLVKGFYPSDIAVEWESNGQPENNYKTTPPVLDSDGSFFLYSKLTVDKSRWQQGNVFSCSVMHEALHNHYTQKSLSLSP
light: DIVMTQSPATLSLSPGERATLSCTSSQSVYHANWLSWFQQKPGQPPKLLIYWASTLAYGVPSRFSGSGSGTDFTLTISSLQPEDAATYYCAGGYGGGRYAFGQGTKVEIKRTVAAPSVFIFPPSDEQLKSGTASVVCLLNNFYPREAKVQWKVDNALQSGNSQESVTEQDSKDSTYSLSSTLTLSKADYEKHKVYACEVTHQGLSSPVTKSFNRGEC
notes: copies: 2 + 2
On to B1, for which the binding result in experiment [1] and in experiment [2] was “binds” throughout.

B2: M103205H795-SG1 I332D/M103202L889-SK1 (antibody, human IgG1, kappa)
heavy: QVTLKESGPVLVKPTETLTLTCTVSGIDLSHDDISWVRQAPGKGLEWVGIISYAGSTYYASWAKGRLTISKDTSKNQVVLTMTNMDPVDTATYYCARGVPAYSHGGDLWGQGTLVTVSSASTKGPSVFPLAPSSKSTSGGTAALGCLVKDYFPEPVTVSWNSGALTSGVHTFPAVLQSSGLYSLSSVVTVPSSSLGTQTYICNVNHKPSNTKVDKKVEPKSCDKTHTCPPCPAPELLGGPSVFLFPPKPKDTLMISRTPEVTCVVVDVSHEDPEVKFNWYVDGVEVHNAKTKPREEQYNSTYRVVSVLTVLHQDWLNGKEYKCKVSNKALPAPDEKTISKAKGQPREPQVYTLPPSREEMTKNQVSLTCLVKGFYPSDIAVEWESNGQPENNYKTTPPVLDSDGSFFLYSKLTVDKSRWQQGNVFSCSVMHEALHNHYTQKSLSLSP
light: DIVMTQSPATLSLSPGERATLSCTSSQSVYHANWLSWFQQKPGQPPKLLIYWASTLAYGVPSRFSGSGSGTDFTLTISSLQPEDAATYYCAGGYGGGRYAFGQGTKVEIKRTVAAPSVFIFPPSDEQLKSGTASVVCLLNNFYPREAKVQWKVDNALQSGNSQESVTEQDSKDSTYSLSSTLTLSKADYEKHKVYACEVTHQGLSSPVTKSFNRGEC
notes: copies: 2 + 2
Take B2: the binding result in experiment [1] and in experiment [2] was “binds” in each case.

B3: M103205H795-SG1 K334V/M103202L889-SK1 (antibody, human IgG1, kappa)
heavy: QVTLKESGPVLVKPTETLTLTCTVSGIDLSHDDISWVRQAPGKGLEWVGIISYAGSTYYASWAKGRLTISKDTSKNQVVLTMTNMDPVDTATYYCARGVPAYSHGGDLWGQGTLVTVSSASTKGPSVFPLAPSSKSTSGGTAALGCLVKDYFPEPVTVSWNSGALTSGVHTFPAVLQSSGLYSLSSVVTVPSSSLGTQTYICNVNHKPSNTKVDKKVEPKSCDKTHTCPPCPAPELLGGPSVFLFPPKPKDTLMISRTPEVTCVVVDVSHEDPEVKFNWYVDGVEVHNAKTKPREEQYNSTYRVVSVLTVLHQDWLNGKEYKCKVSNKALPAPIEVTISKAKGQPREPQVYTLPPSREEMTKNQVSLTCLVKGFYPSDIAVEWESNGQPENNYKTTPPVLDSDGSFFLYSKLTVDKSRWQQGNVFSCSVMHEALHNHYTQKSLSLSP
light: DIVMTQSPATLSLSPGERATLSCTSSQSVYHANWLSWFQQKPGQPPKLLIYWASTLAYGVPSRFSGSGSGTDFTLTISSLQPEDAATYYCAGGYGGGRYAFGQGTKVEIKRTVAAPSVFIFPPSDEQLKSGTASVVCLLNNFYPREAKVQWKVDNALQSGNSQESVTEQDSKDSTYSLSSTLTLSKADYEKHKVYACEVTHQGLSSPVTKSFNRGEC
notes: copies: 2 + 2
Regarding B3, the binding result in experiment [1] and in experiment [2] was “binds” in each case.

B4: M103205H795-SG1 L234W/M103202L889-SK1 (antibody, human IgG1, kappa)
heavy: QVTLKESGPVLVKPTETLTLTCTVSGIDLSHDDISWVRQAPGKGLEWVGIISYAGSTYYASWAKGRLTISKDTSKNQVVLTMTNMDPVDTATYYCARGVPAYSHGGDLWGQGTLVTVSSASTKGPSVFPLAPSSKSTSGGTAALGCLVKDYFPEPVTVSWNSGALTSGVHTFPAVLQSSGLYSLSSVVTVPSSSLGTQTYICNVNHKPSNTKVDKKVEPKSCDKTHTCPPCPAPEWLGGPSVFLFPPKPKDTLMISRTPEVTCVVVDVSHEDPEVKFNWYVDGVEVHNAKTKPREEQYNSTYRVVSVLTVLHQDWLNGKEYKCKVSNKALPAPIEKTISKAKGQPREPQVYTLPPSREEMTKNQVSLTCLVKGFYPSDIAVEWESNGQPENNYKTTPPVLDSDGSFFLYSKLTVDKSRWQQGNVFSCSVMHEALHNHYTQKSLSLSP
light: DIVMTQSPATLSLSPGERATLSCTSSQSVYHANWLSWFQQKPGQPPKLLIYWASTLAYGVPSRFSGSGSGTDFTLTISSLQPEDAATYYCAGGYGGGRYAFGQGTKVEIKRTVAAPSVFIFPPSDEQLKSGTASVVCLLNNFYPREAKVQWKVDNALQSGNSQESVTEQDSKDSTYSLSSTLTLSKADYEKHKVYACEVTHQGLSSPVTKSFNRGEC
notes: copies: 2 + 2
For B4, the binding result in experiment [1] and in experiment [2] was “binds” each time.

B5: MS103205H795-PK2/M103202L889-SK1 (antibody)
heavy: QVTLKESGPVLVKPTETLTLTCTVSGIDLSHDDISWVRQAPGKGLEWVGIISYAGSTYYASWAKGRLTISKDTSKNQVVLTMTNMDPVDTATYYCARGVPAYSHGGDLWGQGTLVTVSSASTKGPSVFPLAPSSKSTSGGTAALGCLVKDYFPEPVTVSWNSGALTSGVHTFPAVLQSSGLYSLSSVVTVPSSSLGTQTYICNVNHKPSNTKVDKKVEPKSCDKTHTCPPCPAPELLNGPSVFLFPPKPKDTLMISRTPEVTCVVVDVSEEDPEVKFNWYVDGVEVHNAKTKPREEQYNSTYRVVSVLTVLHQDWLNGKEYKCKVSNKALPKPIEKTISKAKGQPREPQVYTLPPSREEMTKNQVSLTCLVKGFYPSDIAVEWESNGQPENNYKTTPMVLDRDGSFFLYSKLTVKKSRWQQGNVFSCSVMHEALHNHYTQKSLSLSP
light: DIVMTQSPATLSLSPGERATLSCTSSQSVYHANWLSWFQQKPGQPPKLLIYWASTLAYGVPSRFSGSGSGTDFTLTISSLQPEDAATYYCAGGYGGGRYAFGQGTKVEIKRTVAAPSVFIFPPSDEQLKSGTASVVCLLNNFYPREAKVQWKVDNALQSGNSQESVTEQDSKDSTYSLSSTLTLSKADYEKHKVYACEVTHQGLSSPVTKSFNRGEC
notes: also called MS1032LO06-PK2; copies: 2 + 2
Turning to B5, the “KD fold vs SG1” value in experiment [1] was determined as 8 fold.

B6: M103205H795-SG1 E233D/M103202L889-SK1 (antibody, human IgG1, kappa)
heavy: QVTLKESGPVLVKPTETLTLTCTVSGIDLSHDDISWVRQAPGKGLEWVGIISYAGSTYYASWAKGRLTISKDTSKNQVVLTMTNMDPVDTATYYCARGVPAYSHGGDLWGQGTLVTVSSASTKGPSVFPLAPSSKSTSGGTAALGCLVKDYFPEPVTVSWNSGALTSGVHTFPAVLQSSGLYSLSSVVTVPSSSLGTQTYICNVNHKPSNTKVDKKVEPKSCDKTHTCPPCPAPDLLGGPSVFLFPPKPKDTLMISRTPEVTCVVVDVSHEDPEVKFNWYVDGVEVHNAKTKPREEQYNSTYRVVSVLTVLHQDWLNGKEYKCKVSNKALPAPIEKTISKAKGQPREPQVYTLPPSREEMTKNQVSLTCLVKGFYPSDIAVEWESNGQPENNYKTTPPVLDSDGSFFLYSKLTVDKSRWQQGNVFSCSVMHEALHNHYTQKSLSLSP
light: DIVMTQSPATLSLSPGERATLSCTSSQSVYHANWLSWFQQKPGQPPKLLIYWASTLAYGVPSRFSGSGSGTDFTLTISSLQPEDAATYYCAGGYGGGRYAFGQGTKVEIKRTVAAPSVFIFPPSDEQLKSGTASVVCLLNNFYPREAKVQWKVDNALQSGNSQESVTEQDSKDSTYSLSSTLTLSKADYEKHKVYACEVTHQGLSSPVTKSFNRGEC
notes: copies: 2 + 2
For the molecule B6, the binding result in experiment [1] and in experiment [2] was “binds” in each case.

B7: M103205H795-SG1 G236A/M103202L889-SK1 (antibody, human IgG1, kappa)
heavy: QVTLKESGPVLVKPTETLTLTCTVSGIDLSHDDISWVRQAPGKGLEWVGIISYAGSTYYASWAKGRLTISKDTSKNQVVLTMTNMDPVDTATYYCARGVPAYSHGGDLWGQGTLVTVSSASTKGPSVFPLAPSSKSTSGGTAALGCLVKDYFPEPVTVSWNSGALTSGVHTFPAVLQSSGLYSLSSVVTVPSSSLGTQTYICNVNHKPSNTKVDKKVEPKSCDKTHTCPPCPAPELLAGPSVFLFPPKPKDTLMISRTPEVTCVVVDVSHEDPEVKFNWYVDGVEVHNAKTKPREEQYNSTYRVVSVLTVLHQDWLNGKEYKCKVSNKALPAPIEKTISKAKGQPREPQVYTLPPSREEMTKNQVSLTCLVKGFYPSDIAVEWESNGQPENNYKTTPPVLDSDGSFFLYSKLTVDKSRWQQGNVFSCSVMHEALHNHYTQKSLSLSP
light: DIVMTQSPATLSLSPGERATLSCTSSQSVYHANWLSWFQQKPGQPPKLLIYWASTLAYGVPSRFSGSGSGTDFTLTISSLQPEDAATYYCAGGYGGGRYAFGQGTKVEIKRTVAAPSVFIFPPSDEQLKSGTASVVCLLNNFYPREAKVQWKVDNALQSGNSQESVTEQDSKDSTYSLSSTLTLSKADYEKHKVYACEVTHQGLSSPVTKSFNRGEC
notes: copies: 2 + 2
As for B7, the binding result in experiment [1] and in experiment [2] was “binds” throughout.

B8: M103205H795-SG1 K334I/M103202L889-SK1 (antibody, human IgG1, kappa)
heavy: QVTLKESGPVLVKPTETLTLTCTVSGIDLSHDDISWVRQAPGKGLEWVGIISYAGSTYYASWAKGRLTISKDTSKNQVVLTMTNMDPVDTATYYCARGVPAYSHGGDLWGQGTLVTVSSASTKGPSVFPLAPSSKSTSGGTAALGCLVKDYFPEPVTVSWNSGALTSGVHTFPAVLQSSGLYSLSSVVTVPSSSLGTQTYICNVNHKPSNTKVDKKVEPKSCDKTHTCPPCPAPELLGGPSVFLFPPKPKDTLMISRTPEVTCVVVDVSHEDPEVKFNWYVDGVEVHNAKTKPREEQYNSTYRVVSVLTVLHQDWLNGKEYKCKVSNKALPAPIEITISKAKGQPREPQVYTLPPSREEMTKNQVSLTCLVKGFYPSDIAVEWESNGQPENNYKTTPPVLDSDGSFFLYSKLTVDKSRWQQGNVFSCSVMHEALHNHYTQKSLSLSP
light: DIVMTQSPATLSLSPGERATLSCTSSQSVYHANWLSWFQQKPGQPPKLLIYWASTLAYGVPSRFSGSGSGTDFTLTISSLQPEDAATYYCAGGYGGGRYAFGQGTKVEIKRTVAAPSVFIFPPSDEQLKSGTASVVCLLNNFYPREAKVQWKVDNALQSGNSQESVTEQDSKDSTYSLSSTLTLSKADYEKHKVYACEVTHQGLSSPVTKSFNRGEC
notes: copies: 2 + 2
B8: the binding result in experiment [1] and in experiment [2] was “binds” throughout.

B9: MS103205H795-MY351/M103202L889-SK1 (antibody)
heavy: QVTLKESGPVLVKPTETLTLTCTVSGIDLSHDDISWVRQAPGKGLEWVGIISYAGSTYYASWAKGRLTISKDTSKNQVVLTMTNMDPVDTATYYCARGVPAYSHGGDLWGQGTLVTVSSASTKGPSVFPLAPSSKSTSGGTAALGCLVKDYFPEPVTVSWNSGALTSGVHTFPAVLQSSGLYSLSSVVTVPSSSLGTQTYICNVNHKPSNTKVDKKVEPKSCDKTHTCPPCPAPELLNGPSVFLFPPKPKDTLMISRTPEVTCVVVDVSDEDPEVKFNWYVDGVEVHNAKTKPREEQYNSTYRVVSVLTVLHRDWLNGKEYKCKVSNKALPKPIEKTISKAKGQPREPQVYTLPPSREEMTKNQVSLTCLVKGFYPSDIAVEWESNGQPENNYKTTPPVLDSDGSFFLYSKLTVKKSRWQQGNVFSCSVMHEALHNHYTQKSLSLSP
light: DIVMTQSPATLSLSPGERATLSCTSSQSVYHANWLSWFQQKPGQPPKLLIYWASTLAYGVPSRFSGSGSGTDFTLTISSLQPEDAATYYCAGGYGGGRYAFGQGTKVEIKRTVAAPSVFIFPPSDEQLKSGTASVVCLLNNFYPREAKVQWKVDNALQSGNSQESVTEQDSKDSTYSLSSTLTLSKADYEKHKVYACEVTHQGLSSPVTKSFNRGEC
notes: also called MS1032LO06-MY351; copies: 2 + 2
B9: the “KD fold vs SG1” value in experiment [1] amounted to 5 fold.

B10: M103205H795-SG1 H268E/M103202L889-SK1 (antibody, human IgG1, kappa)
heavy: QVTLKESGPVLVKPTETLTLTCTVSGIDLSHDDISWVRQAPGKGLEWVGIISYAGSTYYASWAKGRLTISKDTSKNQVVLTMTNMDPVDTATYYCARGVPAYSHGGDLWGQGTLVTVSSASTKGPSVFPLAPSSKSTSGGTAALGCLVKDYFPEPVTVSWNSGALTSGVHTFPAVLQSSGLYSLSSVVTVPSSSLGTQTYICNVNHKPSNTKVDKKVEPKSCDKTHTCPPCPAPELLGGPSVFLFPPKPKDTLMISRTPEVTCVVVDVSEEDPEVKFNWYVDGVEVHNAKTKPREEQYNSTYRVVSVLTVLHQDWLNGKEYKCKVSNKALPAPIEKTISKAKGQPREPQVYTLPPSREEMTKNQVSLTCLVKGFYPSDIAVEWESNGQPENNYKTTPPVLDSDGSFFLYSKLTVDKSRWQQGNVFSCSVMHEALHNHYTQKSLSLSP
light: DIVMTQSPATLSLSPGERATLSCTSSQSVYHANWLSWFQQKPGQPPKLLIYWASTLAYGVPSRFSGSGSGTDFTLTISSLQPEDAATYYCAGGYGGGRYAFGQGTKVEIKRTVAAPSVFIFPPSDEQLKSGTASVVCLLNNFYPREAKVQWKVDNALQSGNSQESVTEQDSKDSTYSLSSTLTLSKADYEKHKVYACEVTHQGLSSPVTKSFNRGEC
notes: copies: 2 + 2
Take B10: the binding result in experiment [1] and in experiment [2] was “binds” each time.

B11: M103205H795-SG1 K326T/M103202L889-SK1 (antibody, human IgG1, kappa)
heavy: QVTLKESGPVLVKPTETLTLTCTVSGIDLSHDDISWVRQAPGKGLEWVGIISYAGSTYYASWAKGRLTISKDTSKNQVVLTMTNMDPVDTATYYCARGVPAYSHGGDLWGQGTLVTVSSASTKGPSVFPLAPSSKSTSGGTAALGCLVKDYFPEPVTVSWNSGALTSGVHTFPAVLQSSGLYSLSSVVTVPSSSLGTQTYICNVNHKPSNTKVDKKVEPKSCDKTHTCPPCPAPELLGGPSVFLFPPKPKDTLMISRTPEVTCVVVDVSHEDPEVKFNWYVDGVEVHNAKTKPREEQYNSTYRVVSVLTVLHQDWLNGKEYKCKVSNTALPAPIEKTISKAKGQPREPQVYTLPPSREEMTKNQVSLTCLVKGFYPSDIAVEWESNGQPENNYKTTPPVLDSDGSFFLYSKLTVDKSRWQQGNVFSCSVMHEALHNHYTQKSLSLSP
light: DIVMTQSPATLSLSPGERATLSCTSSQSVYHANWLSWFQQKPGQPPKLLIYWASTLAYGVPSRFSGSGSGTDFTLTISSLQPEDAATYYCAGGYGGGRYAFGQGTKVEIKRTVAAPSVFIFPPSDEQLKSGTASVVCLLNNFYPREAKVQWKVDNALQSGNSQESVTEQDSKDSTYSLSSTLTLSKADYEKHKVYACEVTHQGLSSPVTKSFNRGEC
notes: copies: 2 + 2
Regarding B11, the binding result in experiment [1] and in experiment [2] was “binds” each time.

B12: M103205H795-SG1 K334M/M103202L889-SK1 (antibody, human IgG1, kappa)
heavy: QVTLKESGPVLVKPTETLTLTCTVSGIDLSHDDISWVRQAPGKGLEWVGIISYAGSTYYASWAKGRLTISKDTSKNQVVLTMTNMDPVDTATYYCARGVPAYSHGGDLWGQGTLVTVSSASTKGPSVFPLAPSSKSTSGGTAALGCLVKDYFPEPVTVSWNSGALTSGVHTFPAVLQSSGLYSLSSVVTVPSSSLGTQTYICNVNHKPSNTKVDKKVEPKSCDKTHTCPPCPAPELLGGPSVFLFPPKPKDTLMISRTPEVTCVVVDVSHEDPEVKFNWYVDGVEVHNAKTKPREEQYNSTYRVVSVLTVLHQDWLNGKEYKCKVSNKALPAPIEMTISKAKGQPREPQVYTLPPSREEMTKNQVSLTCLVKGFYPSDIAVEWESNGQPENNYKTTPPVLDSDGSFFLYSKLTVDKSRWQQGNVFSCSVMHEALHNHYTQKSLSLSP
light: DIVMTQSPATLSLSPGERATLSCTSSQSVYHANWLSWFQQKPGQPPKLLIYWASTLAYGVPSRFSGSGSGTDFTLTISSLQPEDAATYYCAGGYGGGRYAFGQGTKVEIKRTVAAPSVFIFPPSDEQLKSGTASVVCLLNNFYPREAKVQWKVDNALQSGNSQESVTEQDSKDSTYSLSSTLTLSKADYEKHKVYACEVTHQGLSSPVTKSFNRGEC
notes: copies: 2 + 2
For the molecule B12, the binding result in experiment [1] and in experiment [2] was “binds” each time.
